Where no end group is shown, it is not given here.
Target: NPR-A IgG fusion (A-IgG) (Homo sapiens, UniProt P16066)
Experiment: Phage ELISA measurement of phagemid affinities for NPR-A (A-IgG)
Conditions: ratio of mutant BNP phagemid binding affinity (EC50) to ANP phagemid binding to A-IgG; clones after 7 rounds of selection
Experimental: ELISA measurement of phagemic affinities for NPR-A and NPR-C: Phage ELISA were determined according to the method of Cunningham, B. C. et al., (1994) EMBO J., 13:2508-2515. Microtiter plates (Nunc, Maxisorb, 96 wells) were coated with purified A-IgG (at 1 μg/ml) in 50 mM sodium bicarbonate (pH 9.6) at 4 C overnight. The plates were blocked with 5% skimmed milk and washed with PBS, 0.01% TWEEN 20. Serial dilutions of competing receptor (A-IgG or C-IgG) and a subsaturating concentration of BNP-phagemid were added to wells in 100 μl of binding buffer (2% skim milk in PBS). After 2 h the plates were washed, and the bound phagemid stained with sheep anti-M13 HRP conjugate antibody (Pharmacia #279402-01),and assayed.
The amino acid residues found at each randomized position after 7 rounds of selection are shown in Table I. 8 segments of 3 to 5 amino acids randomized by primer mutagenisis are indicated at the top of the figure, immediately above the numbering for 32 amino acid human BNP, the sequence of which is shown in single letter amino acid code. Cysteine residues 10 and 26 were not mutagenized since they form a disulfide bond essential for binding to NPR-A. The substitution of K3 for D (Display BNP) is analogous to the acidic substitution R3D in ANP used to facilitate secretion expression in E. coli (Cunningham et al. (1994)). Individual clones were picked and the DNA sequence was determined. The number of times a particular sequence was observed is shown on the left. The ratio of mutant BNP phagemid binding affinity to ANP phagemid binding to A-IgG is shown on the right. Mutations that occur outside of the mutagenesis window result from polymerase misincorporation mutations that render a selection advantage to the mutant BNP phagemid (Cunningham et al. (1994)).

Sequence of NPR-A IgG fusion (A-IgG) (P16066 with tags, fused parts or gaps limits assumed): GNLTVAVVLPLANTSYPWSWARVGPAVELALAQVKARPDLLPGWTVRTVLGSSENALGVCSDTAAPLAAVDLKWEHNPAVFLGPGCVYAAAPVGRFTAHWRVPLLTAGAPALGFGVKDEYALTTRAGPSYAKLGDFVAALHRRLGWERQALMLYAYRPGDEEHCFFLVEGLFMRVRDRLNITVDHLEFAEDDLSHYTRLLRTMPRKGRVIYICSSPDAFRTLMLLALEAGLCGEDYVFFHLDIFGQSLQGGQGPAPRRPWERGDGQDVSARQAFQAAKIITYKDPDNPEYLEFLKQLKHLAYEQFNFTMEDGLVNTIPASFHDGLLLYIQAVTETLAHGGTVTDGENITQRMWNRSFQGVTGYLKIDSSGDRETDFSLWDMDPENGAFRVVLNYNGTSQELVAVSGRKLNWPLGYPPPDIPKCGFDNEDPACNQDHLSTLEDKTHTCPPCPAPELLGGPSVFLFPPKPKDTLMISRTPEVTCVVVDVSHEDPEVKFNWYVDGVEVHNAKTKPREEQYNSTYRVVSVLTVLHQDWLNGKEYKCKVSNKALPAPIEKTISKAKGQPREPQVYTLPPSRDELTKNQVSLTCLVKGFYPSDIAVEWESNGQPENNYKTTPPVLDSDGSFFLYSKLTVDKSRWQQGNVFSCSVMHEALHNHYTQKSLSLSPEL

Going from “F W R: BNP-phagemid clone of Table I (Display BNP, K3D); substitutions as in hBNP Gly23Phe, Leu24Trp, Gly25Arg (SEQ ID NO:2) (SPKMVQGSGCFGRKMERISSSSFWRCKVLRRH; ends and bridges not checked; cysteine pairing not given here)” to “G R R: BNP-phagemid clone of Table I (Display BNP, K3D); substitutions seem those of hBNP Arg13Gly, Lys14Arg, Ser19Arg”, the “Binding to NPR-A ratio of mutant/hANP” value rises from 0.8 to 1.6.

Going from “hBNP Gly23Leu, Leu24Trp, Gly25Arg (SPKMVQGSGCFGRKMERISSSSLWRCKVLRRH; ends and bridges not checked; cysteine pairing not given here) [L W R, measured as BNP-phagemid clone (Display BNP, K3D)]” to “hBNP Gly23Met, Leu24Phe, Gly25Arg (SPKMVQGSGCFGRKMERISSSSMFRCKVLRRH; ends and bridges not checked; cysteine pairing not given here) [M F R, measured as BNP-phagemid clone (Display BNP, K3D)]”, the “Binding to NPR-A ratio of mutant/hANP” value rises from 2.0 to 3.0.

Compared with “hBNP Gly23Met, Leu24Trp, Gly25Arg [M W R]”, “hBNP Gly23Met, Leu24Tyr, Gly25Arg (SPKMVQGSGCFGRKMERISSSSMYRCKVLRRH; ends and bridges not checked; cysteine pairing not given here) [M Y R, measured as BNP-phagemid clone (Display BNP, K3D)]” is higher in “Binding to NPR-A ratio of mutant/hANP” value: 1.0 for the first, 2.4 for the second.

Going from “hBNP Lys14Asn, Ser19Ala, Ser20Arg, Ser21Glu (SPKMVQGSGCFGRNMERIARESGLGCKVLRRH; ends and bridges not checked; cysteine pairing not given here) [N A R E, measured as BNP-phagemid clone (Display BNP, K3D)]” to “hBNP Lys14Asn, Ser19Arg (SPKMVQGSGCFGRNMERIRSSSGLGCKVLRRH; ends and bridges not checked; cysteine pairing not given here) [N R, measured as BNP-phagemid clone (Display BNP, K3D)]”, the “Binding to NPR-A ratio of mutant/hANP” value rises from 1.3 to 3.5.

Going from “hBNP Lys14Asn, Ser19Arg, Ser20Asn, Ser21Thr (SPKMVQGSGCFGRNMERIRNTSGLGCKVLRRH; ends and bridges not checked; cysteine pairing not given here) [N R N T, measured as BNP-phagemid clone (Display BNP, K3D)]” to “hBNP Lys14Asn, Ser19Arg, Ser20Gly (SPKMVQGSGCFGRNMERIRGSSGLGCKVLRRH; ends and bridges not checked; cysteine pairing not given here) [N R G, measured as BNP-phagemid clone (Display BNP, K3D)]”, the “Binding to NPR-A ratio of mutant/hANP” value falls from 8.7 to 3.9.

Compared with “hBNP Lys14Asn, Ser19Arg, Ser20Gly, Ser21Met (SPKMVQGSGCFGRNMERIRGMSGLGCKVLRRH; ends and bridges not checked; cysteine pairing not given here) [N R G M, measured as BNP-phagemid clone (Display BNP, K3D)]”, “hBNP Lys14Asn, Ser19Arg, Ser20His, Ser21Leu (SPKMVQGSGCFGRNMERIRHLSGLGCKVLRRH; ends and bridges not checked; cysteine pairing not given here) [N R H L, measured as BNP-phagemid clone (Display BNP, K3D)]” is lower in “Binding to NPR-A ratio of mutant/hANP” value: 2.9 for the first, 1.0 for the second.

Going from “hBNP Lys14Asn, Ser19Arg, Ser20Lys, Ser21Thr (SPKMVQGSGCFGRNMERIRKTSGLGCKVLRRH; ends and bridges not checked; cysteine pairing not given here) [N N K T, measured as BNP-phagemid clone (Display BNP, K3D)]” to “hBNP Lys14Asn, Ser19Arg, Ser20Thr, Ser21Lys (SPKMVQGSGCFGRNMERIRTKSGLGCKVLRRH; ends and bridges not checked; cysteine pairing not given here) [N R T K, measured as BNP-phagemid clone (Display BNP, K3D)]”, the “Binding to NPR-A ratio of mutant/hANP” value rises from 4.2 to 4.4.

Compared with “hBNP Lys14Asn, Ser19Arg, Ser21Trp [N R S W]”, “hBNP Lys14Asn, Ser19Gly, Ser20Arg, Ser21Ala (SPKMVQGSGCFGRNMERIGRASGLGCKVLRRH; ends and bridges not checked; cysteine pairing not given here) [N G R A, measured as BNP-phagemid clone (Display BNP, K3D)]” is higher in “Binding to NPR-A ratio of mutant/hANP” value: 4.4 for the first, 4.8 for the second.

Going from “hBNP Lys14Asn, Ser19Gly, Ser20Gly, Ser21Leu (SPKMVQGSGCFGRNMERIGGLSGLGCKVLRRH; ends and bridges not checked; cysteine pairing not given here) [N G G L, measured as BNP-phagemid clone (Display BNP, K3D)]” to “hBNP Lys14Asn, Ser19Gly, Ser20His, Ser21Leu (SPKMVQGSGCFGRNMERIGHLSGLGCKVLRRH; displayed on phagemid) [N G H L, measured as BNP-phagemid clone (Display BNP, K3D)]”, the “Binding to NPR-A ratio of mutant/hANP” value rises from 3.9 to 14.8.

Going from “hBNP Lys14Gln, Ser19Arg, Ser20His, Ser22Thr (SPKMVQGSGCFGRQMERIRHSTGLGCKVLRRH; displayed on phagemid) [Q R H S T, measured as BNP-phagemid clone (Display BNP, K3D)]” to “hBNP Lys14Thr, Ser19Arg, Ser20His, Ser21Gly, Ser22Gly (SPKMVQGSGCFGRTMERIRHGGGLGCKVLRRH; displayed on phagemid) [T R H G H, measured as BNP-phagemid clone (Display BNP, K3D)]”, the “Binding to NPR-A ratio of mutant/hANP” value rises from 4.0 to 5.0.
